Assay results reported in PMC8061786 (Journal of Molecular Biology, 2021).

Target: the molecule itself
Test: crystal structure

B1: SARS-CoV main protease (M^pro) (enzyme)
chain: SGFRKMAFPSGKVEGCMVQVTCGTTTLNGLWLDDTVYCPRHVICTAEDMLNPNYEDLLIRKSNHSFLVQAGNVQLRVIGHSMQNCLLRLKVDTSNPKTPKYKFVRIQPGQTFSVLACYNGSPSGVYQCAMRPNHTIKGSFLNGSCGSVGFNIDYDCVSFCYMHHMELPTGVHAGTDLEGKFYGPFVDRQTAQAAGTDTTITLNVLAWLYAAVINGDRWFLNRFTTTLNDFNLVAMKYNYEPLTQDHVDILGPLSAQTGIAVLDMCAALKELLQNGMNGRTILGSTILEDEFTPFDVVRQCSGVTFQ
binding result: binds
